Assay: soluble on expression in E. coli; label from the status in PepcDB or PDB records

Which “soluble on expression in E. coli” value does the source give for “MSLTTELKTEALPTRTQVDPKHCWDTTLMYANREEWKKDFDLCSSGKDRSPIWPEFSPSHYQIDNPESLLELLSKKFSVERKLDQLYIYAHLIHDQDITNPEGESDYQSIVYLYTLFSQEISWIQPALIALSEEKVAALLSSSVLAPYRFYLEKIFRLSPHTGTANEEKILASSFAALNVSNKAFSSLSDAEIPFGIAKDSNGEEHPLSHALASLYMQSPDQELRRTAYLAQFQRYYDYRNTFANLLNGKVQAHLFEAKARNYPSCLEASLFQHNIPTTVYINLINETKKHTSLINRYFNLKKEALNLKEFHFYDVYAPISQTTSKNYSYEEGVDLVCKSLLPLGTHYVEILRNGLLSNRWVDRYENKHKRSGAYSSGCYDSAPYILLNYTNTLYDVSVIAHEAGHSMHSYFSREAQPYHDAQYPLFLAEIASTFNEMLLMEALSKSDQSKEDKIVIITKTLDTIFATLFRQTFFAAFEYEIHSAAEQGTPLTEEFLSATYGNLQKEFYGGVVTSDSLSALEWARIPHFYYNFYVYQYATGIIAALSFAEKILTQEPGALELYLKFLKSGRSDFPLNILKKSGLDMTTSAPLDKAFAFITKKIDLLSSLLSEDEGHHHHHH” here?
Its value is “soluble”.

Which “soluble on expression in E. coli” value does the source give for “MSLTTELVDWTHEQKCRKAVAALEKNGFTAVYCPSGREAFDYILTEAVDARSIGFGGSLSVVDLQVIDRLREMDKELLIHGLPGLSLEERVAIMRRQLTCDLFLTGTNALTLSGWLVNIDATGNRVASMFFGPRTVIVVAGRNKIVDGGVTEAIARVKEWASPPNARRLSYKTPCATTGFCSDCNSPDRICRITTVIDRNPRLTDLRVLVVNEDMGLLEHHHHHH” here?
Its value is “soluble”.

Which “soluble on expression in E. coli” value does the source give for “MSLTTMKEIAEQTGVSISTVSLVLNGRDEGRVNPALAKLVRNKATELGYKINPLARSLRTNKTRILGFISEEVATTPYAGGIILGAQDAASAYGYMLFTVSTDGKASEENEIATLKRYGVDGFFYSKMSNRIAHVPESLSDYPVVMVDATDYENKVPSVEPDEFMIGYDATIRLLQADCKRIAYVGCAENMIAQDGRLAGYCTALQEAGRAFNPSLVCNVMNDGPALRAVNKLFDDEHPDGFFCFNDARAWYVYECAARRGLTVGKDISVVGVDNHRVFAETLEPQLTTVELPHYEMGYWSACKLISMIEGKDVDTSEGHHHHHH” here?
Its value is “not soluble”.

Which “soluble on expression in E. coli” value does the source give for “MSLTTSFQDTEFFENQIFNTGKYNCLILRTAMNVLREHANLDIVYGGRAIRQLIYETVDTISAMEGVDKKATWLKLISLCDQFRKTGQESLSLAEYTEDFNFESIALQVDAFSLFAKPHDFQVFSVFLEDSEKGKLATILSSLTQKFSNKSRFKICQALLERGQISSSSATELYDEFIQSKVDDTEAIDFQNRLAEVSLKTIREMIFSKTREEDTEMRTASDSSVSPFLRLNAISSLRDIKDAHEKILIDMAIIFLLFDPREETVELLNAIVKRLSSYAMLEHIFCTCFNDQGTELESHSLSKPENSVFWISVADKFPALKQLINGGDMAGAFDYLVEKLDKSYDEVILNVVIELLNRGNGEVVRKNYIKSLNPNRLIDRILIGLVYLLTDDVDNFRATFEDFAETLLLQNEQNKTDAPLEDRLNYKKEVSDLLNAVFASSSNPAAQKSNYYHTLFALAKSQAKVLRHRSHENIISPNSTSSAEAKFIKAALLFEQKAISYLKQVVKSEHLKFNLDDAYLNVYELGLYLQDYKSVYESLQNLSPVADEYDYNYLMKRYLSRLISQGSISTIFPPNDNKLYRDNYLLIDSVLLDLANNELVLASALTFYEYLYSWRLLGSATKVDPTELTDKRGAAEALYMFITRFKLEQPDLLSSTSEQSEDIKQYKLKVLELYLMILNCLQSFESIEDQWLVKSQTNDSLAVVKLNEITLEYYNWLKEIKDEEGHHHHHH” here?
Its value is “not soluble”.

For “MSLTVKMGFIGFGKSANRYHLPYVMIRETLEVKTIFDLHVNEKAAAPFKEKGVNFTADLNELLTDPEIELITICTPAHTHYDLAKQAILAGKSVIVEKPFCDTLEHAEELFALGQEKGVVVMPYQNRRFDGDYLAMKQVVEQGFLGEINEVETHIDYYRPGSITEQGPKENGSFYGLGIHLMDRMIALFGRPDQVTYDIRNNEVSEAVDNYFDVDLHYGSKLKVKVKTNHSVASPYPRFIVHGSNGSFIKYGEDQQENDLKAGIMPDAPGFGEDSPMYYGEVTYRNGNGDWIKKQIKTPVGDYGRYYDAVYETLKNGAPQLVTKEQALTNIEILEAGFLNPSPSVYHLKENEGHHHHHH”, which “soluble on expression in E. coli” value is on record?
Its value is “soluble”.

With “MSLTWYHELGIKYPLFQGGMAWASNAELVAAVSNNGALGIIGSGGRTANELRRMIRKTKTLTSQPFGVNLMLLDKNIKQLLEVICEEKISVVTTGAGSPKEIIDTIIANNIKLFPVVPNKEIALKMLNLPISGIIVEGNEAGGHVGSQNLASLLKEIAPICPLPLIAAGGIYDHHTASLANILGANGVQVGTAFLLAKECQISPIYQELICKGEENGTSLISDKNGHLTRLLNISSEYPLNKSLKAAVEKGDLINGAFMAGSSSAYLEKIEPVENIIQRIMKKEGHHHHHH” as the sequence, how does the “soluble on expression in E. coli” value read?
Its value is “not soluble”.

With “MSLVERALQVGSPAPDFALPNAVGREVRLSSVTARGPSVITFYRGAWCPYCSLQLRAYQKILPQLKLLGGELLAISPQTPDKTQATLLKNFLEYEVLSDVGNRVAKRFGLVYPVGAEVRRIYLGFGVDLAEYNGDDSWELPLPGTFVIDRTMTVRLSFVDADYTRRLEPAAILDTLRAMRDVGGIPEGHHHHHH” as the sequence, how does the “soluble on expression in E. coli” value read?
Its value is “not soluble”.

With “MSLVIITDATEADLDQIFQIETESFEDPYPYSLLRAYLFLANKLYLVAKQREKVVGYIIGIIQYGYRGHIVSIAVEPIYRKQGIGAKLLNEIEERFKLNGARYSYLEVNTNNLSAISFYRANGYLIMYVRKNYYGRDKHAFVMVKNLYEGHHHHHH” as the sequence, how does the “soluble on expression in E. coli” value read?
Its value is “soluble”.

For “MSLVIRRLYQFCASHVVRNCSSLKCAQNIHGHNYEVEVFIETNRLDNANMALDFGLMQQEMQVFIESFDHAHHFWDKESLEFQRFIENHCVRYVKCSFNLSAESYALMFLYYLTKILQKSVFSNDEGELKVSSVRVHETKNGYAESFLKDEGHHHHHH”, which “soluble on expression in E. coli” value is on record?
The value was “soluble”.

Which “soluble on expression in E. coli” value does the source give for “MSLVKISNVRVRPLVLPLKQPYHWSYGIRESFAVNLIEIEADDGTVGIGECTVAPDQTGTAAILYRLAKHLVGHSPHDVAPLIARIFHQEYLGHGANIMRAANQIFSGIDMAMWDLQGKLAGLPVHQLLGGAHRKAVGYFYFLQGETAEELARDAAVGHAQGERVFYLKVGRGEKLDLEITAAVRGEIGDARLRLDANEGWSVHDAINMCRKLEKYDIEFIEQPTVSWSIPAMAHVREKVGIPIVADQAAFTLYDVYEICRQRAADMICIGPREIGGIQPMMKAAAVAEAAGLKICIHSSFTTGITTCAEHHIGLAIPNLDDGNQIMWQLVQEDIVSSPDLTPKNGWLDAFRKPGLGFQLAEDLVAEGEGRYAASREGHHHHHH” here?
Its value is “soluble”.

For “MSLVKLKNLTLYLWAVFVVGCTSVPEVSTQAQNPANNKTVSLAELNWQELSLPADINFEFNEKSQVLLDNNSTGPVASFVIPTDRGPVDMVLTSHVGKELTLYEPNVLVTNSKGGVFYHIKSNEFKYIPARLLDGDRVQKQFTIVPQIGADQVNVLIYTTSEDLKGSTTVIHPAKAFAIGTGTQPPMIPDLTAVHSEYGQLNLTVTAVSLTNRTPIRPAIDYVPEIEAKSAYYLNSIQNSVEQGDIDHAMTLVSEAEKLGIPSARATFINAVQSRNEHKEGHHHHHH”, which “soluble on expression in E. coli” value is on record?
Its value is “soluble”.

With “MSLVPHHQPCPPASSLSAGPRGGVIMLILKNVTAVQLHPAKVQEGVDIAIENDVIVAIGDALTQRYPDASYKEMHGRIVMPGIVCSHNHFYSGLSRGIMANIAPSPDFISTLKNLWWRLDRALDEESLYYSGLICSLEAIKSGCTSVIDHHASPAYIGGSLSTLRDAFLKVGLRAMTCFETTDRNNGIKELQEGVEENIRFARQIDEAKKAATEPYLVEAHIGAHAPFTVPDAGLEMLREAVNATGRGLHIHAAEDLYDVSYSHHWYGKDLLARLAQFDLIDSKTLVAHGLYLSKDDIALLNQRDAFLVHNARSNMNNHVGYNHHLSDIRNLALGTDGIGSDMFEEMKFAFFKHRDAGGPLWPDSFAKALTNGNELMSRNFGAKFGLLEAGYKADLTICDYNSPTPLLADNIAGHIAFGMGSGSVHSVMVNGVMVYEDRQFNFDCDSIYAQARKAAASMWRRMDALAEGHHHHHH” as the sequence, how does the “soluble on expression in E. coli” value read?
Its value is “soluble”.

With “MSLVQLYVSDSVSRISFADGRVIVWSEELGESQYPIETLDGITLFGRPTMTTPFIVEMLKRERDIQLFTTDGHYQGRISTPDVSYAPRLRQQVHRTDDPAFCLSLSKRIVSRKILNQQALIRAHTSGQDVAESIRTMKHSLAWVDRSGSLAELNGFEGNAAKAYFTALGHLVPQEFAFQGRSTRPPLDAFNSMVSLGYSLLYKNIIGAIERHSLNAYIGFLHQDSRGHATLASDLMEVWRAPIIDDTVLRLIADGVVDTRAFSKNSDTGAVFATREATRSIARAFGNRIARTATYIKGDPHRYTFQYALDLQLQSLVRVIEAEGHHHHHH” as the sequence, how does the “soluble on expression in E. coli” value read?
The value was “not soluble”.

For “MSLVRMRVGKFDYLNNFLPYYFLNEKVEIVEANPREMASMLLSGRIDYAPVPAFFYLKNRERLRHYEFCVASEGKVLSVVVVSRKKELDDGSIAVTPHSLTSVNLLKILLAERGMKNMLVEVNTAKASEMLELCPHALVIGDEAIKARMIYKVVMDLGEEWYELTSLPAVFGISASLKETNAEEMDRKILMATEEGYRRFDEVVRAAEKAFKMPREFLEEYFRTLKFRLSSKERRGLDEFEKYCRDYGLLEEGHHHHHH”, which “soluble on expression in E. coli” value is on record?
The value was “not soluble”.

For “MSLVRQEPLRPDQPLEMGFEYRSAVRTVRTDSTGLIIPAPTARFSLNESPWRSCKGGMMAGMSSLVRIVNAGVPGSQDRVDVVLRDGVVASVGPAGTVSASDGTMQTKAHTTSLAYATNAIASGGVSIPTSASAPADETTIDADGLWVIPGLWDCHTHFTQWVKTLGRLDLINARSAAEAMDMLRRHLDERRAADTLDPDAFVVGMRFRHSLWADDEQPTLAAIDAVTGEQPVALSSADMHCGWVNSAAARRLGVHVDESGLVGELEWFNAYTAFDKAPGAAEETDRLLREAEQDAASKGVVGIRDYEMAENIDTWINRFAAGINGLRVDAGVYPERLRAAIDAGWHTGKELPGSAGLGHVGAMKLISDGSLNTRSAYCSTPYSGIEPLTYGTLSYTPQQIEDYMRLATEHGFDIACHAIGDEANTIALNAVAATHAHGSIEHAQMLKPVDIPRFAELGLTASIQPQHAMDDRDVITRFWANPAGIPYPFRALHDAGTTLRMGSDAPVAPLDPWLAISAAVLGTESSDREPFQPEQCLDVHTSLAASTATGRDRLASGDPADVVLLDADPYAADTPEAMRAMPQHVVMTLLCGERTYEGHHHHHH”, which “soluble on expression in E. coli” value is on record?
The value was “not soluble”.

Which “soluble on expression in E. coli” value does the source give for “MSLVSIDLPIEGRLARYDLTGRPVPFNSRDAKAFSRVAFAAAHVVADPLADNDPWLAPAIDWERTLAFRHRLWDLGLGVAESMDTAQRGMGLGWPEARELIRRSLAEARGRPDALIACGAGTDHLAPGPDVSIDDILAAYESQIEAIEAEGGRIILMASRALAAAAKGPEDYIRVYDRVLSQVKEPVIIHWLGEMFDPALEGYWGNADHMAAMKTCLDVLEAHAAKVDGIKISLLSKEKEIVMRRQLPKGVRMYTGDDFNYAELIAGDEEGHSDALLGIFDAIAPVASAALEALGSGRNGEFFELLEPTVPLSRHIFKAPTRFYKTGVVFLAYLNGLQDHFVMIGGQQSARSLVHLAELFRLADKAGALADPELATARMRRVLAMHGVEEGHHHHHH” here?
Its value is “soluble”.

Which “soluble on expression in E. coli” value does the source give for “MSLVSTRLNDSQCLVQFSCNRFAKILLGQTLIWVNPSNTRKWGKSKKVNPQITSMEPLELLKKYVRDEKLIKHCIATAAVMKSLARELGEDEEKWWTIGILHDIDYEQTQGDMEKHGLVGAEILLKEGVEEEIAEVVKRHNHMLFGDYEKPVEIALQAADSVSGLVIACALVKGGKITEVTPKTVKKKFKEKSFAAGCDRDRIRMIEKLGMPLEKLYEVAIRGLTEVKDELGLS” here?
Its value is “not soluble”.
